Source: the DeepSol protein solubility set

Test: soluble on expression in E. coli; label from the status in PepcDB or PDB records

Sequence | soluble on expression in E. coli
MGKDLRGKELGVGLYQRKDKRYSARYTNQYGKRMEFYDFKLSVVKKWLNDARYEDEHGLSGTGEKVTVTEWFEKWIKLYKEGVVKDNTVKNYKSRFENNIKPAIGNLQLNKVKKIQLQTILNNMYEEGYAFGTMVLAQITIHALFDGAVQSEILAKNPANGLKCKQRDVKDSRVLTREEQKVFLEYSRGTMYYNAYALLLQTGLRPGEVGGLKWEDIDFDKRELHITRTLLQDKAKGGFYFGSPKNKKSIRTVPLTDTAIQLLKDQRICNFKLRQRSDNWQKNKEFDNLIFCTINGNPVGQSTFRMMMLRVITRINNDRRAEAEINNTTYVEFEPAHPHTLRHTFATRCIEDGMKPNVLQKILGHASITVTMDLYVHETHEEKHKEIRKLGNVEEIGVKLA | not soluble
MSLKRAVISGGAGGLGRALSDALQTRGWHVTLLDRDISAIEPSETQRVIQCDLTDPGQLAAACALAIGPQGVDLAVYNAGITQIGLFADSDEASHRRVFEINYFAAVNMARAMLGPVRQARGTHLAISSVAGFAPLYSRTSYAASKHALEGFFKSLRSEERAHGVAVQIAAPSFVATNLGNAQAQPDGIARPGSATDGMDYMTPEAAAATILRGLDRGRDMIPVGRVARLAWWINRLSPGLYQRLMESKIGREGHHHHHH | soluble
MAVTVSVAQATPAPFDMAARFKALYTREWRWRQAEFPGVVERSSQPQCVDHLPKVDLARQNKRTAYWQQVLEELKTIDPVRLSSKDQINYQVYRQQIEVLLDGQRFRSWEMSFNSDTAFWSDLSFSARDRFRTSEDYRCYLGVLADIPRYFNEQIVNLRQGLARGFAQPRVTLEGRDQVIAEVAGAAGEDNLFYIPFKQMPTMMSAGEQARLRAQVLHLIVDQVVPAYRHLLAFMREEYLPKARTVLAAESLPGGVAYYRAKIFEYTTLDLDPEAIYQIGVAEVAKLRQQMDQVIVDSGFKTSPDQQIFSAFLRYLRTDPQFYPKTPEALLKEAAWIAKRVDAKIGLYIGRLPRRRFAIEPVPADVAPYYTSGRGGPGIYFVNTYDLPSRPLYNLTALTLHESSPGHALQMPLAEEAKEVPEFRRYAFISAYGEGWAVYAEYLGQEMGLYDTPYDRFGYLSYQIWRACRLVIDTGIHHKGWTRAQAQAYLRDNTALSEREITTEVDRYISWPGQALSYYLGELKILELRHKAEAALGAKFDIRHFHDAVLGLGSVPLQVLEARIDRFIAE | not soluble
SLELWLNKATDPSMSEQDWSAIQNFCEQVNTDPNGPTHAPWLLAHKIQSPQEKEALYALTVLEMCMNHCGEKFHSEVAKFRFLNELIKVLSPKYLGSWATGKVKGRVIEILFSWTVWFPEDIKIRDAYQMLKKQGIIKQDPKLPVDKI | soluble
SQQVDKIKASYPLFLDQDYKDMLAKKRDGFEEKYPQDKIDEVFQWTTTKEYQELNFQREALTVNPAKACQPLGAVLCALGFEKTMPYVHGSQGCVAYFRSYFNRHFREPVSCVSDSMTEDAAVFGGQQNMKDGLQNCKATYKPDMIAVSTTCMAEVIGDDLNAFINNSKKEGFIPDEFPVPFAHTPSFVGSHVTGWDNMFEGIARYFTLKSMDDKVVGSNKKINIVPGFETYLGNFRVIKRMLSEMGVGYSLLSDPEEVLDTPADGQFRMYAGGTTQEEMKDAPNALNTVLLQPWHLEKTKKFVEGTWKHEVPKLNIPMGLDWTDEFLMKVSEISGQPIPASLTKERGRLVDMMTDSHTWLHGKRFALWGDPDFVMGLVKFLLELGCEPVHILCHNGNKRWKKAVDAILAASPYGKNATVYIGKDLWHLRSLVFTDKPDFMIGNSYGKFIQRDTLHKGKEFEVPLIRIGFPIFDRHHLHRSTTLGYEGAMQILTTLVNSILERLDEETRGMQATDYNHDLVR | soluble
MSLIEIPGFIDLHTHTRYPDNDKFPFIDIDDSAINGGFSTILAMPNSEIPIDSIKNLRIAQEIDKKLKTKVHRVGSLTKNLEGKELVNYKEFVENGITIFSDDGKSLINDHLADEAFKQISKLGGAVFQHCEKSCHSKPGDIAPPNSNSDLILINNDEELEVLERDLSLSEKYGTRYHAQHLSTFESVELIKKAKQEGLPVTAEVTPHHILLNNENLDTNNGLFKMYPPLRTEKDREGLVEGLQSEIIDVIATDHAPHKAETKNVPFKDANRGVVGLNEGHHHHHH | soluble
MGSDKIHHHHHHMMLRASYGTIRKVNGNSSLEMDTAYLMLGERCVYNCLYCAQSRSSTSPSHFLSRVTWKEVSEDLLGKLNDRFKRVCIQVVSYPSYGKDLRLIIPRFRIPVSVSVRAVSIEEVVEYFELGADRVGIAVDVPNKTLFEKIRGGKYERHLHILEKVSEMFPGRITTHVIVGLGESDKDIVDFTVWARERNIVVSLFAFTPIKGTAFENRERPSLERYRKIQLVTYLLEKNLIKPENIIFDSNGKIIDVEWNGEFPEEALRTRGCPHCTRPYYNESPRGPIYNVHWR | not soluble
